Assay results taken from patent US20220370545A1, “INTEGRIN RECEPTOR ALPHA V BETA 3 AND ITS LIGAND INVOLVED IN CHRONIC ITCH” (North Carolina State University, priority 2019, published 2022).

Tested on: monkeys
Test: Periostin injection in monkeys, number of scratches
Assay type: in vivo, monkey
Conditions: mouse recombinant periostin 25 μg/100 μl subcutaneously, thigh, within 15 minutes
Description: All behavioral experiments were conducted during the light cycle at ambient temperature (23° C.). Behavioral assessment of scratching behavior was conducted as described previously (Mishra et al., 2011). Briefly, mice were injected intradermal into the nape of the neck with periostin (R&D), histamine, and chloroquine (all Millipore-Sigma) as previously described (Shimada and LaMotte, 2008). Compounds were diluted in PBS and the same was used as a vehicle. […] Additionally, cilengitide and periostin were combined together (mix) and injected i.d. into the dorsal neck of mouse. Scratching behavior was recorded for 30 minutes and data was presented in bouts per 30 minutes for mice. […] For eye wipes assay, periostin and capsaicin were dropped on mouse cornea and counted wipes for 1-minute. […] For dog's study, periostin (25 μg/25 μl) was injected in the dorsal neck (s.c.) and behavior was recorded and quantified for 30 minutes as “duration of pruritus manifestation” (DPM), as described earlier (Paps et al., 2016). […] When different raters separately scored a single tape, the ratings indicated high interrater reliability (coefficient of correlation, r>0.95). This method of itch readout in NHP has been used and accepted (Ko and Naughton, 2000). The behavior was recorded for 30 minutes duration and number of scratches quantified. […]

B1: periostin: fasciclin extracellular matrix protein, endogenous ligand of integrin αvβ3; mouse recombinant used (protein)
chain: NSYYDKVLAHSRIRGRDQGPNVCALQQILGTKKKYFSSCKNWYQGAICGKKTTVLYECCPGYMRMEGMKGCPAVMPIDHVYGTLGIVGATTTQHYSDVSKLREEIEGKGSYTYFAPSNEAWENLDSDIRRGLENNVNVELLNALHSHMVNKRMLTKDLKHGMVIPSMYNNLGLFINHYPNGVVTVNCARVIHGNQIATNGVVHVIDRVLTQIGTSIQDFLEAEDDLSSFRAAAITSDLLESLGRDGHFTLFAPTNEAFEKLPRGVLERIMGDKVASEALMKYHILNTLQCSEAITGGAVFETMEGNTIEIGCEGDSISINGIKMVNKKDIVTKNGVIHLIDEVLIPDSAKQVIELAGKQQTTFTDLVAQLGLASSLKPDGEYTLLAPVNNAFSDDTLSMDQRLLKLILQNHILKVKVGLSDLYNGQILETIGGKQLRVFVYRTAICIENSCMVRGSKQGRNGAIHIFREIIQPAEKSLHDKLRQDKRFSIFLSLLEAADLKDLLTQPGDWTLFAPTNDAFKGMTSEERELLIGDKNALQNIILYHLTPGVYIGKGFEPGVTNILKTTQGSKIYLKGVNETLLVNELKSKESDIMTTNGVIHVVDKLLYPADIPVGNDQLLELLNKLIKYIQIKFVRGSTFKEIPMTVYRPAMTKIQIEGDPDFRLIKEGETVTEVIHGEPVIKKYTKIIDGVPVEITEKQTREERIITGPEIKYTRISTGGGETGETLQKFLQKEVSKVTKFIEGGDGHLFEDEEIKRLLQGDTPAKKIPANKRVQGPRRRSREGRSQ
itch after periostin injection in monkeys: robust scratching
